Here are results for two molecules from US20240417475A1 (AFFIMED, published 2024).

Test [1] addresses T1, human FOLR1 endogenously expressed on tumor cell lines (human, UniProt P15328 25-234).
T1 construct: whole, on cells; also called FOLR1-positive tumor cell lines; FOLR1+ target cells
Briefly: flow cytometry on IGROV-1 cells (FOLR1 high) at 37 °C, FITC anti-human IgG detection. The procedure: Cells were collected and centrifuged at 400×g, 5 min, 4° C. Cell pellets were resuspended in FACS buffer (PBS (Invitrogen, cat.: 392-0434) containing 2% h.i. FCS (Invitrogen, cat.: 10500-064), and 0.1% sodium azide (Sigma, cat.: S8032)) at 1-5×10⁶ cells/mL. 100 μL/well of the cell suspension were transferred into U-shaped, 96-well micro plates (0.1-0.5×10⁶ cells per well), cells were pelleted at 400×g, 5 min, 4° C., and resuspended in 100 μL/well of serial dilutions of the indicated antibodies in FACS buffer. After 40-50 min incubation at 37° C., cells were washed 3-times with ice-cold FACS buffer. […] After the final incubation step, cells were washed 2-times with ice-cold FACS buffer, and the cell pellet was resuspended in 100 μL FACS buffer. Fluorescence intensities of >1×10⁴ viable cells were analyzed by flow cytometry and the median fluorescence intensity (MFI) was determined for each sample.
In general terms: In flow cytometry, cells or beads pass a laser one at a time.

The target in test [2] is T2, CD16A endogenously expressed on primary human NK cells (human, UniProt P08637 17-254). The experiment in a line: flow cytometry on primary human NK cells at 37 °C, biotinylated antibody, streptavidin-FITC, in the presence of 10 mg/mL polyclonal human IgG (competitor). The method, then:
(§1) Frozen NK cells were thawed, and viability was determined with trypan blue (Sigma-Aldrich, cat.: T8154). Cells have been centrifuged at 400×g, 5 min, 4° C. Cell pellets were resuspended in FACS buffer PBS (Invitrogen, cat.: 392-0434) containing 2% h.i. FCS (Invitrogen, cat.: 10500-064), and 0.1% sodium azide (Sigma, cat.: S8032) at 2×10⁶ cells/mL. 100 μL/well of the cell suspension were transferred into U-shaped 96 well plates, cells were pelleted at 400×g, 5 min. 4° C., and resuspended in 50 μL/well of diluted antibody constructs. […] After 40-50 minutes' incubation at 37° C., cells were washed 3-times with ice-cold FACS buffer. […] After the final incubation step, cells were washed 2-times with ice-cold FACS buffer, and the cell pellet was resuspended in 50 μL FACS buffer. Fluorescence intensity of >1×10⁴ viable cells was analyzed by flow cytometry and the median fluorescence intensity (MFI) was determined for each sample.

Test [3] addresses T2, CD16A endogenously expressed on primary …. Briefly: flow cytometry on primary human NK cells, with against without 10 mg/mL polyclonal human IgG. The method, then:
(§2) 4° C., and resuspended in 50 μL/well of diluted antibody constructs. […] After 40-50 minutes' incubation at 37° C., cells were washed 3-times with ice-cold FACS buffer. […] After the final incubation step, cells were washed 2-times with ice-cold FACS buffer, and the cell pellet was resuspended in 50 μL FACS buffer. Fluorescence intensity of >1×10⁴ viable cells was analyzed by flow cytometry and the median fluorescence intensity (MFI) was determined for each sample.
(§3) Equilibrium dissociation constants (KD) of antibody binding were calculated by plotting MFI values and fitting a non-linear regression model for one-site binding to hyperbolic dose-response curves using GraphPad Prism.

The target is the same in test [4]. The experiment in a line: flow cytometry on primary human NK cells, biotinylated antibody, 37 C, with 10 mg/mL polyclonal human IgG as competitor, mean of 4. The method, then:
as §2, §3

Test [5] shares this target. The experiment in a line: flow cytometry on primary human NK cells, biotinylated antibody, 37 C, without IgG, mean of 4. The procedure:
as §2, §3

Test [6] shares this target. The experiment in a line: flow cytometry on primary human NK cells at 37 °C, biotinylated antibody, streptavidin-FITC, without polyclonal human IgG. The procedure: as §1
The target in test [7] is T1, human FOLR1 endogenously expressed on …. Briefly: cell-based or functional assay.
For test [8], the target named is recombinant cynomolgus CD16, biotinylated, mFc.silenced/Avi-tagged (cynomolgus, UniProt Q8SPW2 17-208, biotinylated (Avi-tag)). Briefly: SPR (Biacore T200), 37 °C, multivalent multi-cycle kinetics, biotin-captured antigen as ligand, construct as analyte, 1:1 binding model, n=3. The method, then: (§4) For multivalent interaction analysis, biotinylated-mFc.silenced/Avi-tagged antigens were captured (FC2, FC4) to a density of 120-200RU, before CD123×CD16A ICE were injected (concentration: 0-60 nM) for 240s at a flow rate of 40 μL/min and complex was left to dissociate for 300s at the same flow rate.
Chain of recombinant cynomolgus CD16, biotinylated, mFc.silenced/Avi-tagged (Q8SPW2 17-208): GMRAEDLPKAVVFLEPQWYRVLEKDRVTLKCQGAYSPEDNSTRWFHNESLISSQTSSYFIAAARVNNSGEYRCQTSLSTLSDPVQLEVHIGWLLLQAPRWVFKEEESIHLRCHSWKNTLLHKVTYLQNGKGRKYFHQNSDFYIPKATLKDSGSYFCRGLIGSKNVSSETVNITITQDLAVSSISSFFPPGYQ
(§5) After each cycle, chip surfaces were regenerated with 6M guanidine-HCl, 0.25M NaOH and reloaded with Biotin Capture reagent. Interaction kinetics were determined by fitting data from multi-cycle kinetics experiments to a simple 1:1 interaction model using the local data analysis option (Rmax and RI) available within Biacore T200 Evaluation Software (v3.1). Referencing was done against a flow cell without captured ligand (Fc2-Fc1, Fc4-Fc3).

The target in test [9] is recombinant human CD16A^158F, biotinylated, mFc.silenced/Avi-tagged (human, UniProt P08637 17-208, biotinylated (Avi-tag)). Described as above. The procedure:
as §4, §5

For test [10], the target named is T3, recombinant human CD16A^158V, biotinylated, mFc.silenced/Avi-tagged (human, UniProt P08637 17-208, biotinylated (Avi-tag)).
T3 construct: also called CD16^158V
T3 sequence (P08637 17-208 F176V limits assumed): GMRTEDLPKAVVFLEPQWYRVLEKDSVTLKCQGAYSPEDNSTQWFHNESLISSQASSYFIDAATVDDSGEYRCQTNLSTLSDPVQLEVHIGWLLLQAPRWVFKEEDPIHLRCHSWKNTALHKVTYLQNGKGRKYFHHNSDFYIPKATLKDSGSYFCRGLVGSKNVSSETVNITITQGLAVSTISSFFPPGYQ
The test is described as above. The method, then: as §4, §5

Chain of recombinant human CD16A^158F, biotinylated, mFc.silenced/Avi-tagged (P08637 17-208): as the sequence (P08637 17-208 F176V limits assumed) above, with V160F counted along it
T2 sequence (P08637 17-254 limits assumed): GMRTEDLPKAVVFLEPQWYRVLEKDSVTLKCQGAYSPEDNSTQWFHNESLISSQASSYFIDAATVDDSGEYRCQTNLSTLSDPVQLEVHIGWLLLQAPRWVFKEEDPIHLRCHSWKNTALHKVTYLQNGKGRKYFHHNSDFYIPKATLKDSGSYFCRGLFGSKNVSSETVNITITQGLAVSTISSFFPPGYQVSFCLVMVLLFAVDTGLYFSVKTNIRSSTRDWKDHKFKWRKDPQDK
T1 sequence (P15328 25-234): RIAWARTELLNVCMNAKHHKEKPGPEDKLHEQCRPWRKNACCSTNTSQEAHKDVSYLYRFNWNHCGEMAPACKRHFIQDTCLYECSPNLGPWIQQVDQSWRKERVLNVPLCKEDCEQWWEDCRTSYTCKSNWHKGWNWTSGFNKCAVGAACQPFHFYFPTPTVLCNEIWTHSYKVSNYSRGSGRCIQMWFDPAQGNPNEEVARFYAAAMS

B1: scFv-IgAb_444 (RSV×CD16A) (bispecific antibody)
chain 1: QVTLRESGPALVKPTQTLTLTCTFSGFSLSTAGMSVGWIRQPPGKALEWLADIWWDDKKHYNPSLKDRLTISKDTSKNQVVLKVTNMDPADTATYYCARDMIFNFYFDVWGQGTTVTVSSASTKGPSVFPLAPSSKSTSGGTAALGCLVKDYFPEPVTVSWNSGALTSGVHTFPAVLQSSGLYSLSSVVTVPSSSLGTQTYICNVNHKPSNTKVDKKVEPKSCDKTHTCPPCPAPEFEGGPSVFLFPPKPKDTLMISRTPEVTCVVVAVSHEDPEVKFNWYVDGVEVHNAKTKPREEQYNSTYRVVSVLTVLHQDWLNGKEYKCKVSNKALPAPIEKTISKAKGQPREPQVYTLPPSREEMTKNQVSLTCLVKGFYPSDIAVEWESNGQPENNYKTTPPVLDSDGSFFLYSKLTVDKSRWQQGNVFSCSVMHEALHNHYTQKSLSLSPGGGGGSGGGGSGGGGSGGGGSGGGGSGGGGSSYELTQPLSVSVALGQTARITCGGNNIGSKSVHWYQQKPGQAPVLVIYQDKKRPSGIPERFSGSNSGNTATLTISRAQAGDEADYYCQVWDDYIVLFGCGTKLTVLGGSGGSGGSGGSGGSGGSGGSQVQLVQSGAEVKKPGASVKVSCKASGYTFTNYYMQWVRQAPGQCLEWMGIINPSGGVTSYAQKFQGRVTMTRDTSTSTVYMELSSLRSEDTAVYYCARGSAYYYDFADYWGQGTLVTVSSG
chain 2: DIQMTQSPSTLSASVGDRVTITCSASSRVGYMHWYQQKPGKAPKLLIYDTSKLASGVPSRFSGSGSGTEFTLTISSLQPDDFATYYCFQGSGYPFTFGGGTKVEIKRTVAAPSVFIFPPSDEQLKSGTASVVCLLNNFYPREAKVQWKVDNALQSGNSQESVTEQDSKDSTYSLSSTLTLSKADYEKHKVYACEVTHQGLSSPVTKSFNRGEC
notes: also called RSV/CD16A scFv-IgAb_444; RSV(NIST)×CD16A
As for B1, the binding result in test [1] is listed as “no binding (tested: about 500 nM)”. Moreover, the EC50 (read off the curve) (as a rule, the concentration giving half of the maximal effect) in test [2] was 10 to 20 nM; in [6] it was ~4 nM. Moreover, the “fold loss in KD induced by IgG” value in [3] worked out at 5 fold. Besides, the figures for the Kd in [4] and in [5] were 19.9 nM and 3.8 nM, respectively. Moreover, in test [7], the “Phagocytosis [%], 4 h ADCP, DK-MG cells” value was 0%. The “Phagocytosis [%], 4 h ADCP, HCC-78 cells” value in [7] came out at 0%. The “Phagocytosis [%], 4 h ADCP, HeLa cells” value in test [7] came to 0%.

B2: scFv-IgAb_264 (CD123-2×CD16a2) (bispecific antibody)
chain 1: QVQLVQSGAEVKKPGASVKMSCKASGYTFTDYYMKWVKQAPGQGLEWIGDIIPSNGATFYNQKFKGKATLTVDRSISTAYMHLNRLRSDDTAVYYCTRSHLLRASWFAYWGQGTLVTVSSASTKGPSVFPLAPSSKSTSGGTAALGCLVKDYFPEPVTVSWNSGALTSGVHTFPAVLQSSGLYSLSSVVTVPSSSLGTQTYICNVNHKPSNTKVDKKVEPKSCDKTHTCPPCPAPEFEGGPSVFLFPPKPKDTLMISRTPEVTCVVVAVSHEDPEVKFNWYVDGVEVHNAKTKPREEQYNSTYRVVSVLTVLHQDWLNGKEYKCKVSNKALPAPIEKTISKAKGQPREPQVYTLPPSREEMTKNQVSLTCLVKGFYPSDIAVEWESNGQPENNYKTTPPVLDSDGSFFLYSKLTVDKSRWQQGNVFSCSVMHEALHNHYTQKSLSLSPGGGGGSGGGGSGGGGSGGGGSGGGGSGGGGSSYELTQPLSVSVALGQTARITCGGHNIGSKNVHWYQQKPGQAPVLVIYQDNKRPSGIPERFSGSNSGNTATLTISRAQAGDEADYYCQVWDNYNVLFGCGTKLTVLGGSGGSGGSGGSGGSGGSGGSQVQLVQSGAEVKKPGASVKVSCKASGYTFTSYYMHWVRQAPGQCLEWMGAIEPRYGSTSYAQKFQGRVTMTRDTSTSTVYMELSSLRSEDTAVYYCARGSAYYYDFADYWGQGTLVTVSS
chain 2: not shown
notes: also called scFv-IgAb_264 (CD16a1×CD123-2); CD123-1×CD16a2 scFv-IgAb_264
In the case of B2, in test [8], the dissociation constant (Kd) (commonly the equilibrium constant for the complex coming apart) turned out to be 2.4 nM; the koff (as a rule, the rate constant with which the complex falls apart) came out at 0.013 s⁻¹; the kon (commonly a measure of how fast the partners come together) was determined as 5.2e+06 M⁻¹ s⁻¹. Further, in [9], the Kd was 0.567 nM, the koff amounted to 0.0036 s⁻¹ and the kon came to 6.4e+06 M⁻¹ s⁻¹. Besides, in test [10], the dissociation constant Kd came out at 0.43 nM, the koff stood at 0.0027 s⁻¹ and the kon amounted to 6.3e+06 M⁻¹ s⁻¹.
